Data: the RNAGym collection of RNA variant scans (doi:10.1093/molbev/msab373)

B1: Azoarcus group I ribozyme (parent)
chain: GUGCCUUGCGCCGGGAAACCACGCAAGGGAUGGUGUCAAAUUCGGCGAAACCUAAGCGCCCGCCCGGGCGUAUGGCAACGCCGAGCCAAGCUUCGGCGCCUGCGCCGAUGAAGGUGUAGAGACUAGACGGCACCCACCUAAGGCAAACGCUAUGGUGAAGGCAUAGUCCAGGGAGUGGCGAAAGUCACACAAACCGG

Variants of: B1
Assay: reverse-splicing fitness (ratio to wild type); higher = more active; in vitro selection; Mg2+ level not given
How it was run: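 An in vitro group I ribozyme library with randomized positions was T7-transcribed and gel-purified. In triplicate, 10 pmol RNA in EPPS pH 7.5 was reacted with 50 pmoles of a 30-nt RNA substrate for 1 h at 37 °C across several added MgCl2 levels (1–48 mM), then stopped with EDTA. Products were reverse transcribed from a substrate-complementary primer, PCR-amplified and sequenced (HiSeq 4000). Fitness is a variant's read proportion after selection over that before, normalised to wild type.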

Variant	reverse-splicing fitness
GUGCCUUGCGCCGGGAAACCACGCAAGGGAUGGUGUCAAAUUCGGCGAAACCUAAGCGCCCGCCCGGGCGUAUGGCAACGCGGAGCCAAGCUUCGGCGCCUGCGCCGAUGGAGGUGUAGCGACUAGACGGCACCCACCUAAGGCAAACGAUAUGGUGAAGGCAUAGUCCAGGGAGUGGCGAAAGUCACACAAACCGG	0.0154
GUGCCUUGCGCCGGGAAACCACGCAAGGGAUGGUGUCAAAUUCGGCGAAACCUAAGCGCCCGCCCGGGCGUAUGGCAACGCGGAGCCAAGCUUCGGCGCCUGCGCCGAUGGAGGUGUAGCGACUAGACGGCACCCACCUAAGGCAAACGAUAUGGUGAAGGCAUAGUCAAGGGAGAGGCGAAAGUCACACAAACCGG	0.0223
GUGCCUUGCGCCGGGAAACCACGCAAGGGAUGGUGUCAAAUUCGGCGAAACCUAAGCGCCCGCCCGGGCGUAUGGCAACGCGGAGCCAAGCUUCGGCGCCUGCGCCGAUGGAGGUGUAGCGACUAGACGGCACCCACCUAAGGCAAACGAUAUGGUGAAGGCAUAGUCAAGGGAGGGGCGAAAGUCACACAAACCGG	0.00841
GUGCCUUGCGCCGGGAAACCACGCAAGGGAUGGUGUCAAAUUCGGCGAAACCUAAGCGCCCGCCCGGGCGUAUGGCAACGCGGAGCCAAGCUUCGGCGCCUGCGCCGAUGGAGGUGUAGCGACUAGACGGCACCCACCUAAGGCAAACGAUAUGGUGAAGGCAUAGUCAAGGGAGCGGCGAAAGUCACACAAACCGG	0.0204
GUGCCUUGCGCCGGGAAACCACGCAAGGGAUGGUGUCAAAUUCGGCGAAACCUAAGCGCCCGCCCGGGCGUAUGGCAACGCGGAGCCAAGCUUCGGCGCCUGCGCCGAUGGAGGUGUAGCGACUAGACGGCACCCACCUAAGGCUAACGUUAUGGUGAAGGCAUAGUCUAGGGAGGGGCGAAAGUCACACAAACCGG	0.00591
GUGCCUUGCGCCGGGAAACCACGCAAGGGAUGGUGUCAAAUUCGGCGAAACCUAAGCGCCCGCCCGGGCGUAUGGCAACGCGGAGCCAAGCUUCGGCGCCUGCGCCGAUGGAGGUGUAGCGACUAGACGGCACCCACCUAAGGCUAACGUUAUGGUGAAGGCAUAGUCUAGGGAGAGGCGAAAGUCACACAAACCGG	0.0143
GUGCCUUGCGCCGGGAAACCACGCAAGGGAUGGUGUCAAAUUCGGCGAAACCUAAGCGCCCGCCCGGGCGUAUGGCAACGCGGAGCCAAGCUUCGGCGCCUGCGCCGAUGGAGGUGUAGCGACUAGACGGCACCCACCUAAGGCUAACGUUAUGGUGAAGGCAUAGUCUAGGGAGCGGCGAAAGUCACACAAACCGG	0.0143
GUGCCUUGCGCCGGGAAACCACGCAAGGGAUGGUGUCAAAUUCGGCGAAACCUAAGCGCCCGCCCGGGCGUAUGGCAACGCGGAGCCAAGCUUCGGCGCCUGCGCCGAUGGAGGUGUAGCGACUAGACGGCACCCACCUAAGGCAAACGAUAUGGUGAAGGCAUAGUCGAGGGAGAGGCGAAAGUCACACAAACCGG	0.0218
GUGCCUUGCGCCGGGAAACCACGCAAGGGAUGGUGUCAAAUUCGGCGAAACCUAAGCGCCCGCCCGGGCGUAUGGCAACGCGGAGCCAAGCUUCGGCGCCUGCGCCGAUGGAGGUGUAGCGACUAGACGGCACCCACCUAAGGCAAACGAUAUGGUGAAGGCAUAGUCGAGGGAGCGGCGAAAGUCACACAAACCGG	0.0218
GUGCCUUGCGCCGGGAAACCACGCAAGGGAUGGUGUCAAAUUCGGCGAAACCUAAGCGCCCGCCCGGGCGUAUGGCAACGCGGAGCCAAGCUUCGGCGCCUGCGCCGAUGGAGGUGUAGCGACUAGACGGCACCCACCUAAGGCUAACGCUAUGGUGAAGGCAUAGUCUAGGGAGUGGCGAAAGUCACACAAACCGG	0.0157
GUGCCUUGCGCCGGGAAACCACGCAAGGGAUGGUGUCAAAUUCGGCGAAACCUAAGCGCCCGCCCGGGCGUAUGGCAACGCGGAGCCAAGCUUCGGCGCCUGCGCCGAUGGAGGUGUAGCGACUAGACGGCACCCACCUAAGGCUAACGCUAUGGUGAAGGCAUAGUCAAGGGAGUGGCGAAAGUCACACAAACCGG	0.00712
GUGCCUUGCGCCGGGAAACCACGCAAGGGAUGGUGUCAAAUUCGGCGAAACCUAAGCGCCCGCCCGGGCGUAUGGCAACGCGGAGCCAAGCUUCGGCGCCUGCGCCGAUGGAGGUGUAGCGACUAGACGGCACCCACCUAAGGCUAACGCUAUGGUGAAGGCAUAGUCGAGGGAGUGGCGAAAGUCACACAAACCGG	0.00799
GUGCCUUGCGCCGGGAAACCACGCAAGGGAUGGUGUCAAAUUCGGCGAAACCUAAGCGCCCGCCCGGGCGUAUGGCAACGCGGAGCCAAGCUUCGGCGCCUGCGCCGAUGGAGGUGUAGCGACUAGACGGCACCCACCUAAGGCUAACGCUAUGGUGAAGGCAUAGUCGAGGGAGCGGCGAAAGUCACACAAACCGG	0.0163
GUGCCUUGCGCCGGGAAACCACGCAAGGGAUGGUGUCAAAUUCGGCGAAACCUAAGCGCCCGCCCGGGCGUAUGGCAACGCGGAGCCAAGCUUCGGCGCCUGCGCCGAUGGAGGUGUAGCGACUAGACGGCACCCACCUAAGGCUAACGCUAUGGUGAAGGCAUAGUCGAGGGAGAGGCGAAAGUCACACAAACCGG	0.0157
GUGCCUUGCGCCGGGAAACCACGCAAGGGAUGGUGUCAAAUUCGGCGAAACCUAAGCGCCCGCCCGGGCGUAUGGCAACGCGGAGCCAAGCUUCGGCGCCUGCGCCGAUGGAGGUGUAGCGACUAGACGGCACCCACCUAAGGCUAACGCUAUGGUGAAGGCAUAGUCGAGGGAGGGGCGAAAGUCACACAAACCGG	0.00477
GUGCCUUGCGCCGGGAAACCACGCAAGGGAUGGUGUCAAAUUCGGCGAAACCUAAGCGCCCGCCCGGGCGUAUGGCAACGCGGAGCCAAGCUUCGGCGCCUGCGCCGAUGGAGGUGUAGCGACUAGACGGCACCCACCUAAGGCUAACGCUAUGGUGAAGGCAUAGUCUAGGGAGGGGCGAAAGUCACACAAACCGG	0.00484
GUGCCUUGCGCCGGGAAACCACGCAAGGGAUGGUGUCAAAUUCGGCGAAACCUAAGCGCCCGCCCGGGCGUAUGGCAACGCGGAGCCAAGCUUCGGCGCCUGCGCCGAUGGAGGUGUAGCGACUAGACGGCACCCACCUAAGGCUAACGCUAUGGUGAAGGCAUAGUCUAGGGAGAGGCGAAAGUCACACAAACCGG	0.0129
GUGCCUUGCGCCGGGAAACCACGCAAGGGAUGGUGUCAAAUUCGGCGAAACCUAAGCGCCCGCCCGGGCGUAUGGCAACGCGGAGCCAAGCUUCGGCGCCUGCGCCGAUGGAGGUGUAGCGACUAGACGGCACCCACCUAAGGCUAACGCUAUGGUGAAGGCAUAGUCUAGGGAGCGGCGAAAGUCACACAAACCGG	0.0124
GUGCCUUGCGCCGGGAAACCACGCAAGGGAUGGUGUCAAAUUCGGCGAAACCUAAGCGCCCGCCCGGGCGUAUGGCAACGCGGAGCCAAGCUUCGGCGCCUGCGCCGAUGGAGGUGUAGCGACUAGACGGCACCCACCUAAGGCUAACGUUAUGGUGAAGGCAUAGUCCAGGGAGCGGCGAAAGUCACACAAACCGG	0.0348
GUGCCUUGCGCCGGGAAACCACGCAAGGGAUGGUGUCAAAUUCGGCGAAACCUAAGCGCCCGCCCGGGCGUAUGGCAACGCGGAGCCAAGCUUCGGCGCCUGCGCCGAUGGAGGUGUAGCGACUAGACGGCACCCACCUAAGGCUAACGUUAUGGUGAAGGCAUAGUCCAGGGAGGGGCGAAAGUCACACAAACCGG	0.00869
GUGCCUUGCGCCGGGAAACCACGCAAGGGAUGGUGUCAAAUUCGGCGAAACCUAAGCGCCCGCCCGGGCGUAUGGCAACGCGGAGCCAAGCUUCGGCGCCUGCGCCGAUGGAGGUGUAGCGACUAGACGGCACCCACCUAAGGCUAACGUUAUGGUGAAGGCAUAGUCCAGGGAGAGGCGAAAGUCACACAAACCGG	0.0202
GUGCCUUGCGCCGGGAAACCACGCAAGGGAUGGUGUCAAAUUCGGCGAAACCUAAGCGCCCGCCCGGGCGUAUGGCAACGCGGAGCCAAGCUUCGGCGCCUGCGCCGAUGGAGGUGUAGCGACUAGACGGCACCCACCUAAGGCUAACGUUAUGGUGAAGGCAUAGUCUAGGGAGUGGCGAAAGUCACACAAACCGG	0.0124
GUGCCUUGCGCCGGGAAACCACGCAAGGGAUGGUGUCAAAUUCGGCGAAACCUAAGCGCCCGCCCGGGCGUAUGGCAACGCGGAGCCAAGCUUCGGCGCCUGCGCCGAUGGAGGUGUAGCGACUAGACGGCACCCACCUAAGGCAAACGAUAUGGUGAAGGCAUAGUCGAGGGAGUGGCGAAAGUCACACAAACCGG	0.00943
GUGCCUUGCGCCGGGAAACCACGCAAGGGAUGGUGUCAAAUUCGGCGAAACCUAAGCGCCCGCCCGGGCGUAUGGCAACGCGGAGCCAAGCUUCGGCGCCUGCGCCGAUGGAGGUGUAGCGACUAGACGGCACCCACCUAAGGCAAACGAUAUGGUGAAGGCAUAGUCAAGGGAGUGGCGAAAGUCACACAAACCGG	0.0106
GUGCCUUGCGCCGGGAAACCACGCAAGGGAUGGUGUCAAAUUCGGCGAAACCUAAGCGCCCGCCCGGGCGUAUGGCAACGCGGAGCCAAGCUUCGGCGCCUGCGCCGAUGGAGGUGUAGCGACUAGACGGCACCCACCUAAGGCUAACGCUAUGGUGAAGGCAUAGUCCAGGGAGGGGCGAAAGUCACACAAACCGG	0.00776
GUGCCUUGCGCCGGGAAACCACGCAAGGGAUGGUGUCAAAUUCGGCGAAACCUAAGCGCCCGCCCGGGCGUAUGGCAACGCGGAGCCAAGCUUCGGCGCCUGCGCCGAUGGAGGUGUAGCGACUAGACGGCACCCACCUAAGGCUAACGCUAUGGUGAAGGCAUAGUCCAGGGAGCGGCGAAAGUCACACAAACCGG	0.0434
GUGCCUUGCGCCGGGAAACCACGCAAGGGAUGGUGUCAAAUUCGGCGAAACCUAAGCGCCCGCCCGGGCGUAUGGCAACGCGGAGCCAAGCUUCGGCGCCUGCGCCGAUGGAGGUGUAGCGACUAGACGGCACCCACCUAAGGCUAACGCUAUGGUGAAGGCAUAGUCCAGGGAGAGGCGAAAGUCACACAAACCGG	0.0294
GUGCCUUGCGCCGGGAAACCACGCAAGGGAUGGUGUCAAAUUCGGCGAAACCUAAGCGCCCGCCCGGGCGUAUGGCAACGCGGAGCCAAGCUUCGGCGCCUGCGCCGAUGGAGGUGUAGCGACUAGACGGCACCCACCUAAGGCUAACGCUAUGGUGAAGGCAUAGUCAAGGGAGAGGCGAAAGUCACACAAACCGG	0.0147
GUGCCUUGCGCCGGGAAACCACGCAAGGGAUGGUGUCAAAUUCGGCGAAACCUAAGCGCCCGCCCGGGCGUAUGGCAACGCGGAGCCAAGCUUCGGCGCCUGCGCCGAUGGAGGUGUAGCGACUAGACGGCACCCACCUAAGGCUAACGCUAUGGUGAAGGCAUAGUCAAGGGAGCGGCGAAAGUCACACAAACCGG	0.0149
GUGCCUUGCGCCGGGAAACCACGCAAGGGAUGGUGUCAAAUUCGGCGAAACCUAAGCGCCCGCCCGGGCGUAUGGCAACGCGGAGCCAAGCUUCGGCGCCUGCGCCGAUGGAGGUGUAGCGACUAGACGGCACCCACCUAAGGCUAACGCUAUGGUGAAGGCAUAGUCAAGGGAGGGGCGAAAGUCACACAAACCGG	0.00508
